Assay results as given in US20110059889A1 (SYNTONIX PHARMACEUTICALS, published 2011).
Bridge positions count the residues as written; N and C are the ends. Square brackets hold non-standard residues; d marks the D form. Ends that are not written are not given here. NMeL = CN[C@@H](CC(C)C)C(=O)O; Pen = CC(C)(S)[C@H](N)C(=O)O

B1: Peptide No. 45 (peptide)
peptide: QRF[Pen]TGHFG[dY]LYPCNGP-NH2
modifications: disulfide 4-14; N-terminus assumed
SMILES: CC(C)C[C@@H]1NC(=O)[C@@H](Cc2ccc(O)cc2)NC(=O)CNC(=O)[C@H](Cc2ccccc2)NC(=O)[C@H](Cc2c[nH]cn2)NC(=O)CNC(=O)[C@H]([C@@H](C)O)NC(=O)[C@@H](NC(=O)[C@H](Cc2ccccc2)NC(=O)[C@H](CCCNC(=N)N)NC(=O)[C@@H](N)CCC(N)=O)C(C)(C)SSC[C@@H](C(=O)N[C@@H](CC(N)=O)C(=O)NCC(=O)N2CCC[C@H]2C(N)=O)NC(=O)[C@@H]2CCCN2C(=O)[C@H](Cc2ccc(O)cc2)NC1=O
B2: Peptide No. 52 (peptide)
peptide: QRF[Pen]TGHF[dF]GLYPCNGP-NH2
modifications: disulfide 4-14; N-terminus assumed
SMILES: CC(C)C[C@@H]1NC(=O)CNC(=O)[C@@H](Cc2ccccc2)NC(=O)[C@H](Cc2ccccc2)NC(=O)[C@H](Cc2c[nH]cn2)NC(=O)CNC(=O)[C@H]([C@@H](C)O)NC(=O)[C@@H](NC(=O)[C@H](Cc2ccccc2)NC(=O)[C@H](CCCNC(=N)N)NC(=O)[C@@H](N)CCC(N)=O)C(C)(C)SSC[C@@H](C(=O)N[C@@H](CC(N)=O)C(=O)NCC(=O)N2CCC[C@H]2C(N)=O)NC(=O)[C@@H]2CCCN2C(=O)[C@H](Cc2ccc(O)cc2)NC1=O
B3: Peptide No. 150 (peptide)
peptide: QRF[Pen]TGHF[dF][dP]LYPCNGP-NH2
modifications: disulfide 4-14; N-terminus assumed
SMILES: CC(C)C[C@@H]1NC(=O)[C@H]2CCCN2C(=O)[C@@H](Cc2ccccc2)NC(=O)[C@H](Cc2ccccc2)NC(=O)[C@H](Cc2c[nH]cn2)NC(=O)CNC(=O)[C@H]([C@@H](C)O)NC(=O)[C@@H](NC(=O)[C@H](Cc2ccccc2)NC(=O)[C@H](CCCNC(=N)N)NC(=O)[C@@H](N)CCC(N)=O)C(C)(C)SSC[C@@H](C(=O)N[C@@H](CC(N)=O)C(=O)NCC(=O)N2CCC[C@H]2C(N)=O)NC(=O)[C@@H]2CCCN2C(=O)[C@H](Cc2ccc(O)cc2)NC1=O
B4: Peptide No. 148 (peptide)
peptide: QRF[Pen]TGHF[dA][dA]LYPCNGP-NH2
modifications: disulfide 4-14; N-terminus assumed
SMILES: CC(C)C[C@@H]1NC(=O)[C@@H](C)NC(=O)[C@@H](C)NC(=O)[C@H](Cc2ccccc2)NC(=O)[C@H](Cc2c[nH]cn2)NC(=O)CNC(=O)[C@H]([C@@H](C)O)NC(=O)[C@@H](NC(=O)[C@H](Cc2ccccc2)NC(=O)[C@H](CCCNC(=N)N)NC(=O)[C@@H](N)CCC(N)=O)C(C)(C)SSC[C@@H](C(=O)N[C@@H](CC(N)=O)C(=O)NCC(=O)N2CCC[C@H]2C(N)=O)NC(=O)[C@@H]2CCCN2C(=O)[C@H](Cc2ccc(O)cc2)NC1=O
B5: Peptide No. 153 (peptide)
peptide: QRF[Pen]TGHF[dF]G[NMeL]YPCNGP-NH2
modifications: disulfide 4-14; N-terminus assumed
SMILES: CC(C)C[C@H]1C(=O)N[C@@H](Cc2ccc(O)cc2)C(=O)N2CCC[C@H]2C(=O)N[C@H](C(=O)N[C@@H](CC(N)=O)C(=O)NCC(=O)N2CCC[C@H]2C(N)=O)CSSC(C)(C)[C@H](NC(=O)[C@H](Cc2ccccc2)NC(=O)[C@H](CCCNC(=N)N)NC(=O)[C@@H](N)CCC(N)=O)C(=O)N[C@@H]([C@@H](C)O)C(=O)NCC(=O)N[C@@H](Cc2c[nH]cn2)C(=O)N[C@@H](Cc2ccccc2)C(=O)N[C@H](Cc2ccccc2)C(=O)NCC(=O)N1C
B6: Peptide No. 155 (peptide)
peptide: QRF[Pen]TGHF[dF]GPYPCNGP-NH2
modifications: disulfide 4-14; N-terminus assumed
SMILES: C[C@@H](O)[C@@H]1NC(=O)[C@@H](NC(=O)[C@H](Cc2ccccc2)NC(=O)[C@H](CCCNC(=N)N)NC(=O)[C@@H](N)CCC(N)=O)C(C)(C)SSC[C@@H](C(=O)N[C@@H](CC(N)=O)C(=O)NCC(=O)N2CCC[C@H]2C(N)=O)NC(=O)[C@@H]2CCCN2C(=O)[C@H](Cc2ccc(O)cc2)NC(=O)[C@@H]2CCCN2C(=O)CNC(=O)[C@@H](Cc2ccccc2)NC(=O)[C@H](Cc2ccccc2)NC(=O)[C@H](Cc2c[nH]cn2)NC(=O)CNC1=O
B7: Peptide No. 203 (peptide)
peptide: QRF[Pen]TGHF[dF]PLYPCNGP-NH2
modifications: disulfide 4-14; N-terminus assumed
SMILES: CC(C)C[C@@H]1NC(=O)[C@@H]2CCCN2C(=O)[C@@H](Cc2ccccc2)NC(=O)[C@H](Cc2ccccc2)NC(=O)[C@H](Cc2c[nH]cn2)NC(=O)CNC(=O)[C@H]([C@@H](C)O)NC(=O)[C@@H](NC(=O)[C@H](Cc2ccccc2)NC(=O)[C@H](CCCNC(=N)N)NC(=O)[C@@H](N)CCC(N)=O)C(C)(C)SSC[C@@H](C(=O)N[C@@H](CC(N)=O)C(=O)NCC(=O)N2CCC[C@H]2C(N)=O)NC(=O)[C@@H]2CCCN2C(=O)[C@H](Cc2ccc(O)cc2)NC1=O
B8: Peptide No. 49 (peptide)
peptide: QRF[Pen]TGHF[dR]GLYPCNGP-NH2
modifications: disulfide 4-14; N-terminus assumed
SMILES: CC(C)C[C@@H]1NC(=O)CNC(=O)[C@@H](CCCNC(=N)N)NC(=O)[C@H](Cc2ccccc2)NC(=O)[C@H](Cc2c[nH]cn2)NC(=O)CNC(=O)[C@H]([C@@H](C)O)NC(=O)[C@@H](NC(=O)[C@H](Cc2ccccc2)NC(=O)[C@H](CCCNC(=N)N)NC(=O)[C@@H](N)CCC(N)=O)C(C)(C)SSC[C@@H](C(=O)N[C@@H](CC(N)=O)C(=O)NCC(=O)N2CCC[C@H]2C(N)=O)NC(=O)[C@@H]2CCCN2C(=O)[C@H](Cc2ccc(O)cc2)NC1=O
B9: Peptide No. 48 (peptide)
peptide: QRF[Pen]TGHF[dP]GLYPCNGP-NH2
modifications: disulfide 4-14; N-terminus assumed
SMILES: CC(C)C[C@@H]1NC(=O)CNC(=O)[C@H]2CCCN2C(=O)[C@H](Cc2ccccc2)NC(=O)[C@H](Cc2c[nH]cn2)NC(=O)CNC(=O)[C@H]([C@@H](C)O)NC(=O)[C@@H](NC(=O)[C@H](Cc2ccccc2)NC(=O)[C@H](CCCNC(=N)N)NC(=O)[C@@H](N)CCC(N)=O)C(C)(C)SSC[C@@H](C(=O)N[C@@H](CC(N)=O)C(=O)NCC(=O)N2CCC[C@H]2C(N)=O)NC(=O)[C@@H]2CCCN2C(=O)[C@H](Cc2ccc(O)cc2)NC1=O
B10: Peptide No. 152 (peptide)
peptide: QRF[Pen]TGHF[dP][dP]LYPCNGP-NH2
modifications: disulfide 4-14; N-terminus assumed
SMILES: CC(C)C[C@@H]1NC(=O)[C@H]2CCCN2C(=O)[C@H]2CCCN2C(=O)[C@H](Cc2ccccc2)NC(=O)[C@H](Cc2c[nH]cn2)NC(=O)CNC(=O)[C@H]([C@@H](C)O)NC(=O)[C@@H](NC(=O)[C@H](Cc2ccccc2)NC(=O)[C@H](CCCNC(=N)N)NC(=O)[C@@H](N)CCC(N)=O)C(C)(C)SSC[C@@H](C(=O)N[C@@H](CC(N)=O)C(=O)NCC(=O)N2CCC[C@H]2C(N)=O)NC(=O)[C@@H]2CCCN2C(=O)[C@H](Cc2ccc(O)cc2)NC1=O
B11: Peptide No. 50 (peptide)
peptide: QRF[Pen]TGHF[dH]GLYPCNGP-NH2
modifications: disulfide 4-14; N-terminus assumed
SMILES: CC(C)C[C@@H]1NC(=O)CNC(=O)[C@@H](Cc2c[nH]cn2)NC(=O)[C@H](Cc2ccccc2)NC(=O)[C@H](Cc2c[nH]cn2)NC(=O)CNC(=O)[C@H]([C@@H](C)O)NC(=O)[C@@H](NC(=O)[C@H](Cc2ccccc2)NC(=O)[C@H](CCCNC(=N)N)NC(=O)[C@@H](N)CCC(N)=O)C(C)(C)SSC[C@@H](C(=O)N[C@@H](CC(N)=O)C(=O)NCC(=O)N2CCC[C@H]2C(N)=O)NC(=O)[C@@H]2CCCN2C(=O)[C@H](Cc2ccc(O)cc2)NC1=O
B12: Peptide No. 95 (peptide)
peptide: QRF[Pen]TGHWGGLYPCNGP-NH2
modifications: disulfide 4-14; N-terminus assumed
SMILES: CC(C)C[C@@H]1NC(=O)CNC(=O)CNC(=O)[C@H](Cc2c[nH]c3ccccc23)NC(=O)[C@H](Cc2c[nH]cn2)NC(=O)CNC(=O)[C@H]([C@@H](C)O)NC(=O)[C@@H](NC(=O)[C@H](Cc2ccccc2)NC(=O)[C@H](CCCNC(=N)N)NC(=O)[C@@H](N)CCC(N)=O)C(C)(C)SSC[C@@H](C(=O)N[C@@H](CC(N)=O)C(=O)NCC(=O)N2CCC[C@H]2C(N)=O)NC(=O)[C@@H]2CCCN2C(=O)[C@H](Cc2ccc(O)cc2)NC1=O
B13: Peptide No. 271 (peptide)
peptide: RFCTGXFGGLYPC
modifications: Pen 3; triazolylAla 6 (1,2,3-triazole side chain); Sar 9; NMeL 10; disulfide 3-13; C-terminal amide
B14: Peptide No. 269 (peptide)
peptide: RFCTGXFGGLYPC
modifications: Pen 3; Thz(Me) 6 (N-methyl-thiazolium); Sar 9; NMeL 10; disulfide 3-13; C-terminal CONH2

Molecular target: T1, soluble human FcRn (shFcRn) (human, UniProt P55899 24-297; P61769 21-119)
T1 construct: Biotinylated for the ELISA, amine-coupled to a CM5 chip for SPR; also called biotinylated shFcRn
Assay: SPR pH 6
Description: The following steps were performed to cross-link soluble human or cynomolgus FcRn to the dextran surface of a CM5 sensor chip (Biacore AB, Uppsala, Sweden) by an amine coupling reaction involving 1-ethyl-(3-dimethylaminopropyl)-carbodiimide hydrochloride (EDC) (Biacore AB, Uppsala, Sweden) and N-hydroxysuccinimide (NHS) (Biacore AB, Uppsala, Sweden) as recommended by Biacore (BIAapplications Handbook, version AB, section 4.2, Biacore AB, Uppsala, Sweden). […] Residual sites on the FcRn flow cell were blocked with 1 M ethanolamine hydrochloride pH 8.5 (Biacore AB, Uppsala, Sweden). A control flow cell was blocked with ethanolamine for reference subtraction. For analysis of the monomeric peptides, FcRn was coated to a final density of 4000-5000 response units (RU). For analysis of the peptide dimers, FcRn was coated to a density of 2000-2500 RU. All SPR measurements were performed using a BIACORE 3000 Instrument (Biacore AB Uppsala, Sweden). For measurements done at either pH 6 or pH 7.4, experiments were performed in 50 mM phosphate, 100 mM sodium chloride, 0.01% surfactant P20 (Biacore AB, Uppsala, Sweden).
Ten, 2-fold dilutions of the peptide were injected over the FcRn-CM5 chip at a rate of 20 μl/min for 2 min. The peptide was dissociated from the chip for 2.5 minutes with buffer. Any remaining peptide was removed from the chip with a 30 second injection of HBS-P buffer (Biacore AB, Uppsala, Sweden) at a rate of 30 μl/min. Sensorgrams were generated and analyzed using BiaEval software version 3.1 (Biacore AB, Uppsala, Sweden). The equilibrium RU observed for each injection was plotted against concentration. The equilibrium KD values were derived by analysis of the plots using the steady state affinity model included in the BiaEval software.

T1 sequence (P55899 24-297 limits assumed, chain 1 of 2): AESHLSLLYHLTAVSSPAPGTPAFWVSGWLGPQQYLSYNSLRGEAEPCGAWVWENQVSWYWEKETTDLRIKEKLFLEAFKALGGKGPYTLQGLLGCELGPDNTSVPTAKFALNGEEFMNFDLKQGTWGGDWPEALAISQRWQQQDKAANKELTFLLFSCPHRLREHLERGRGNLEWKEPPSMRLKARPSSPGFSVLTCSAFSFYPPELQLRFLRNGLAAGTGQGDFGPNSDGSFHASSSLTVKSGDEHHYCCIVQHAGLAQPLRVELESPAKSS
T1 sequence (P61769 21-119 limits assumed, chain 2 of 2): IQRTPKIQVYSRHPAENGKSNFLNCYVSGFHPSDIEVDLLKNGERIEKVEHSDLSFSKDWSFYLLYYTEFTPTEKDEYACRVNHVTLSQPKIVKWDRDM

| Binder | Kd |
| --- | --- |
| QRFCTGHFXGLYPCNGP (Pen 4; Aib 9; disulfide 4-14; C-terminal amide) [Peptide No. 54] | 5.2 µM |
| B1 | 1.5 µM |
| B2 | 0.51 µM |
| B3 | 0.72 µM |
| B4 | 0.45 µM |
| B5 | 0.24 µM |
| B6 | 18.3 µM |
| B7 | 3.8 µM |

Molecular target: T1, soluble human FcRn (shFcRn)
Assay: IgG competition ELISA
Description: (§1) The wells were coated with 100 μl/well of 1 μg/ml biotinylated-shFcRn in Buffer A. The plate was sealed and incubated at 37° C. for 2 hours. Afterwards, the plate was washed with 200 μl/well of Buffer B (Buffer B: 100 mM MES pH 6, 150 mM NaCl, 0.5% BSA IgG-free (Jackson ImmunoResearch, West Grove, Pa.), 0.05% Tween-20). […] To allow for mixing, the plate was rocked for 2 minutes, sealed and incubated at 37° C. for 2 hours. […] The plate was covered, incubated for 30 minutes at room temperature and washed 4 times with 200 μl/well of ice-cold buffer B. SureBlue TMB substrate solution (100 μl/well, KPL, Gaithersburg, Md.) was added and the plate was allowed to incubate at room temperature until color developed, which took 5 to 10 minutes. Once color developed, 100 μl/well of TMB stop solution (KPL, Gaithersburg, Md.) was added and the absorbance was measured at 450 nm. The data was plotted as absorbance vs. peptide concentration to derive the inhibitory concentration 50% (IC₅₀) values.

| Binder | IC50 |
| --- | --- |
| QRFCTGHFXGLYPCNGP (Pen 4; Aib 9; disulfide 4-14; C-terminal amide) [Peptide No. 54] | 17 µM |
| B2 | 2.8 µM |
| B3 | 5.9 µM |
| B8 | 4.1 µM |
| B5 | 1.3 µM |
| B6 | 39 µM |
| B9 | 5 µM |
| B10 | 21 µM |
| B11 | 3.6 µM |

Molecular target: T1, soluble human FcRn (shFcRn)
Assay: IgG competition ELISA
Remark: another data set of the same source
Description: as §1

| Binder | IC50 |
| --- | --- |
| B12 | 26 µM |

Molecular target: T1, soluble human FcRn (shFcRn)
Assay: IgG competition ELISA
Remark: another data set of the same source
Description: as §1

| Binder | IC50 |
| --- | --- |
| B13 | 5.7 µM |
| B14 | 2.4 µM |
| QRFCTGXFGGLYPCNGP (Pen 4; Thz 7; disulfide 4-14; C-terminal amide) [Peptide No. 91] | 44 µM |
| RFCTGXFGGLYPC (Pen 3; PropargylGly 6; Sar 9; NMeLeu 10; disulfide 3-13; C-terminal amide) [Peptide No. 261] | 160 µM |
